The results in this text go back to patent US20140072544A1, “POLYBACTERIAL PREPARATION WITH HEALTH BENEFITS: ANTIOXIDANT EFFECT, REDUCTION OF CHOLESTEROL CONCENTRATION, ANTI-INFLAMMATORY IMMUNOMODULATING EFFECT AND RELEASE OF BIOACTIVE PEPTIDES INHIBITING ANGIOTENSIN-CONVERTING ENZYME” (LB BULGARICUM PLC, priority 2011, published 2014).

For the test, the target named is angiotensin-converting enzyme (ACE) (Homo sapiens, UniProt P12821). As to the kind of experiment: ACE-inhibiting activity of peptide extracts. It is filed as biochemical. To be noted: purified single peptide released by L. helveticus A1 (HPLC fractionation, ion exchange). Here is the method: Purified strains with inoculum of 0.1% are incubated for 18 hours in 9% skimmed milk at 37° C. After adjusting the pH to 4.3 with 50% lactic acid the samples are centrifuged (5000 g, 10 min). Supernatant is dosed at reverse-phase cartridge and washed with water. The process is followed by elution with 60% acetonitrile in 0.1% trifluoroacetic acid and then evaporation and reconstitution of the resulting extract. The extract or its dilutions are analyzed for inhibition of ACE.
Sequence of angiotensin-converting enzyme (ACE) (P12821 30-1306, species assumed): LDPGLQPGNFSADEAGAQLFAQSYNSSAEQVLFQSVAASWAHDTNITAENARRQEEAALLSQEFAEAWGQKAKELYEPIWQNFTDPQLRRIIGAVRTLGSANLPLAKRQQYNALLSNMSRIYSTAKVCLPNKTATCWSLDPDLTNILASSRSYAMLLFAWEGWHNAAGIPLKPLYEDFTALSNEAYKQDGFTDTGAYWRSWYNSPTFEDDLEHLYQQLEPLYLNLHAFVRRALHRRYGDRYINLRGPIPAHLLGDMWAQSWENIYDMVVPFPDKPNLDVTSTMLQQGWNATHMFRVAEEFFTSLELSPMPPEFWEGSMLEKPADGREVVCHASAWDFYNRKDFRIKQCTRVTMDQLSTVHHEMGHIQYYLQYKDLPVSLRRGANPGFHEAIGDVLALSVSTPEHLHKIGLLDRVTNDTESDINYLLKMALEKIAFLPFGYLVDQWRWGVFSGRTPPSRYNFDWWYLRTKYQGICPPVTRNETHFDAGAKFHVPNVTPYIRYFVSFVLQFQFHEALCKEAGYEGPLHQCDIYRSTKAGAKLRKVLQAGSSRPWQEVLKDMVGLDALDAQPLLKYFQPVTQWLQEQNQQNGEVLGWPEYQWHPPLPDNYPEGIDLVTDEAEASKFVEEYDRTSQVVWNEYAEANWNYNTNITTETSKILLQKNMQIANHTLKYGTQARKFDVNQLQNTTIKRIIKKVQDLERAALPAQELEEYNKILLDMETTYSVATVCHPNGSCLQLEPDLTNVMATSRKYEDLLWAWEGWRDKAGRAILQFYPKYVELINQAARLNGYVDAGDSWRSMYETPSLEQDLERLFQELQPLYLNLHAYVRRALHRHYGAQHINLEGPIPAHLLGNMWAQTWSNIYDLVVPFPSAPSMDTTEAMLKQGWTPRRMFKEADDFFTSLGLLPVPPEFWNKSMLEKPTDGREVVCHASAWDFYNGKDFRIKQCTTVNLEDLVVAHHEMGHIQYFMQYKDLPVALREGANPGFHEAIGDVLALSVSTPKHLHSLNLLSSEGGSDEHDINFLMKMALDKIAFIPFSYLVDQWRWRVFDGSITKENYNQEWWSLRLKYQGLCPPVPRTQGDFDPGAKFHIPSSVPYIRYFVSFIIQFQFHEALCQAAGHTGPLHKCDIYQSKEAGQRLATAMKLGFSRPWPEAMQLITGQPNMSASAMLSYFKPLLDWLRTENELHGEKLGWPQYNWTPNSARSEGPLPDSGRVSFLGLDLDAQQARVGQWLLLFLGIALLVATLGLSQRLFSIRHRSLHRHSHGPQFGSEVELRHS
A total peptide extract is prepared. Enzymatic reaction is carried out by a conventional test, but using different dilutions of peptide extracts as their volume is 20 μl. The enzyme solution was 40 μl with an activity of 0.1 U/ml. The substrate hipuril-histidil-leucine is dissolved in borate buffer at pH 8.3 and has a volume of 190 μl. The final concentration of the substrate is 6 mM, and those of sodium chloride is 300 mM. The reaction is conducted at 37° C. for 30 minutes. The seizing is performed with 100 microliters of 4 n HCl, and the extraction of the freed hippuric acid is done with 1 ml of ethyl acetate. After evaporation of the solvent, the residue is dissolved in 1 ml of water and tested spectrophotometrically at 228 nm. […]
where A is the absorbance under the upper reaction, C is the absorbance without enzyme, B is the absorbance without the involvement of peptide extracts. […]

In the case of “Ala-Leu-Pro-Met (ALPM; printed: Ala-Leu-Pro-Met) [anti-ACE peptide released by the strain L. helveticus A1, purified from fermented milk]”, the Anti-ACE activity % was determined as 78.0%.
